The supplement of paper PMC10126150
± gives the standard deviation of the averaged measurements.

Tested on: ATP
Test: switch fluorescence ratio, 500 uM ATP over buffer (Cy3 cluster intensity, sum of 5 cycles each) (fold (ratio)); higher = stronger signal-on switching upon ATP binding; sequences stand for … in TCGTCGGCAGCGTCAGATGTGTATAAGAGACAGTTTTTTTTTTTTTTTTTTTTTTTTT…TC
Details: aptamer strand: ATP DNA aptamer (quencher-CACCTGGGGGAGTATTGCGGAGGAAGG + anchor), 100 nM annealed; ATP concentration: 500 uM
Summary of the method: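 After annealing to 100 nM quencher-labelled ATP aptamer, Cy3-labelled switching-strand clusters on a modified Illumina MiSeq flow-cell were imaged in selection buffer. A second image followed after 15 min with 500 uM ATP at 22 °C, and five such buffer/ATP cycles were done, each separated by NaOH stripping and re-annealing. The fluorescence ratio, averaged per switch-domain sequence, is summed target-cycle over summed buffer-cycle Cy3 intensity per cluster, with clusters outside 100-1000 RFU excluded.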
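Further: ATP exposure 15 min at 22 °C before imaging.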

| Sequence | switch fluorescence ratio |
| --- | --- |
| GCCGTTACTG | 1.05 ± 0.031 |
| GCCGTTATGG | 1.02 ± 0.053 |
| GCCTAACACT | 1.01 ± 0.04 |
| GCCTAAGGGA | 1 ± 0.0063 |
| GCCTAATTGA | 0.98434 ± 0.00034 |
| GCCTACGGCC | 1.004 ± 0.0021 |
| GCCTAGCATA | 1.02 ± 0.018 |
| GCCTATGCGG | 1.01 ± 0.0033 |
| GCCTCAAGTT | 1.03 ± 0.052 |
| GCCTCCCGGG | 1.136 ± 0.0053 |
| GCCTGAAGGG | 1 ± 0.014 |
| GCCTGAGGGA | 1.05 ± 0.049 |
| GCCTGCCGTT | 0.996 ± 0.033 |
| GCCTTAGCGG | 1.03 ± 0.048 |
| GCCTTATTTT | 1 ± 0.027 |
| GCCTTCTGGA | 1.05 ± 0.036 |
| GCCTTGCCTT | 1.03 ± 0.013 |
| GCCTTTTCTG | 0.962 ± 0.031 |
| GCCTTTTTTT | 0.991 ± 0.029 |
| GCGAAAAGGG | 1.024 ± 0.0069 |
| GCGAAACAGG | 1.11 ± 0.06 |
| GCGAAAGGGT | 1 ± 0.015 |
| GCGAACGCGC | 1.27 ± 0.011 |

| Sequence | switch fluorescence ratio |
| --- | --- |
| GCGAATAGTT | 1.005 ± 0.0067 |
| GCGAATGATG | 0.966 ± 0.024 |
| GCGAATGCGG | 1.006 ± 0.003 |
| GCGACAAGAG | 1.03 ± 0.067 |
| GCGACAGGAC | 1.48 ± 0.12 |
| GCGACGGGCG | 0.972 ± 0.044 |
| GCGACTAGGC | 1.03 ± 0.068 |
| GCGAGAAATC | 1.08 ± 0.019 |
| GCGAGAACGG | 1.01 ± 0.034 |
| GCGAGATGAT | 0.977 ± 0.022 |
| GCGAGCAGTA | 1.01 ± 0.028 |
| GCGAGCCACG | 1.007 ± 0.0076 |
| GCGAGCGGGT | 1 ± 0.016 |
| GCGAGGGATG | 1.002 ± 0.0043 |
| GCGAGGGTGT | 1.12 ± 0.039 |
| GCGATACTCG | 3.56 ± 0.16 |
| GCGATCGTTT | 0.992 ± 0.011 |
| GCGATGGTCG | 0.937 ± 0.14 |
| GCGATTATAT | 0.969 ± 0.049 |
| GCGATTGGAT | 1.03 ± 0.0022 |
| GCGATTGGGG | 0.9705 ± 0.0044 |
| GCGATTTATG | 0.9723 ± 0.0051 |
| GCGCAATCTG | 1.98 ± 0.52 |

| Sequence | switch fluorescence ratio |
| --- | --- |
| GCGCATAGGG | 1.04 ± 0.044 |
| GCGCATTAGC | 1.3 ± 0.061 |
| GCGCGAGTAG | 1.03 ± 0.028 |
| GCGCGCTAGT | 1.007 ± 0.0024 |
| GCGCGGCTTC | 1.03 ± 0.034 |
| GCGCGTATAT | 1.07 ± 0.044 |
| GCGCGTCAAG | 1.012 ± 0.009 |
| GCGCGTTTTT | 1 ± 0.016 |
| GCGCTAATTT | 1.28 ± 0.59 |
| GCGCTAGGGC | 1 ± 0.014 |
| GCGCTCGTAC | 2.27 ± 0.15 |
| GCGCTTGAAC | 1.15 ± 0.051 |
| GCGCTTGAGG | 1.006 ± 0.0083 |
| GCGCTTGGAA | 1.02 ± 0.049 |
| GCGCTTTTCT | 0.9784 ± 0.0063 |
| GCGGAAAGAA | 0.962 ± 0.02 |
| GCGGAAAGGA | 1 ± 0.038 |
| GCGGAAAGGG | 0.992 ± 0.021 |
| GCGGAAGGG | 0.996 ± 0.0087 |
| GCGGAATAGG | 1.038 ± 0.0062 |
| GCGGAATGGG | 1.01 ± 0.019 |
| GCGGACAGGA | 1 ± 0.029 |
| GCGGAGCATG | 1.1036 ± 0.00099 |

| Sequence | switch fluorescence ratio |
| --- | --- |
| GCGGATGAGA | 1.056 ± 0.0096 |
| GCGGATTCGG | 0.9551 ± 0.0048 |
| GCGGATTGAA | 0.988 ± 0.044 |
| GCGGCCAGGG | 1.23 ± 0.15 |
| GCGGCGGGGG | 0.99 ± 0.031 |
| GCGGCTTCGT | 1.02 ± 0.07 |
| GCGGGAAAGG | 0.978 ± 0.012 |
| GCGGGACGTT | 0.96828 ± 0.00072 |
| GCGGGATACA | 1.07 ± 0.034 |
| GCGGGATCCG | 1.06 ± 0.083 |
| GCGGGCAGGA | 1.02 ± 0.021 |
| GCGGGCGATG | 0.9902 ± 0.00014 |
| GCGGGCGTTG | 0.996 ± 0.053 |
| GCGGGCTTCA | 1.01 ± 0.025 |
| GCGGGGACAA | 1.069 ± 0.0083 |
| GCGGGGACAT | 0.994 ± 0.013 |
| GCGGGGACGG | 1.07 ± 0.034 |
| GCGGGGCCTT | 0.9811 ± 0.004 |
| GCGGGGCGGG | 1.02 ± 0.017 |
| GCGGGGTACT | 1.11 ± 0.055 |
| GCGGGTATGA | 0.964 ± 0.052 |
| GCGGGTCAAA | 0.9883 ± 0.0093 |
| GCGGGTCAGC | 1.01 ± 0.012 |

| Sequence | switch fluorescence ratio |
| --- | --- |
| GCGGGTTGCC | 0.9871 ± 0.0013 |
| GCGGGTTTGG | 1.01 ± 0.018 |
| GCGGTAACCA | 0.992 ± 0.033 |
| GCGGTAGCAT | 1.02 ± 0.012 |
| GCGGTAGGTT | 1.01 ± 0.013 |
| GCGGTCAAAC | 1.06 ± 0.036 |
| GCGGTGCTGG | 0.991 ± 0.024 |
| GCGGTGGCGG | 0.987 ± 0.039 |
| GCGGTGGTTT | 0.998 ± 0.017 |
| GCGGTGTTGG | 0.9887 ± 0.006 |
| GCGGTTCGAA | 0.997 ± 0.084 |
| GCGGTTGCCA | 0.982 ± 0.033 |
| GCGGTTGTTC | 0.995 ± 0.034 |
| GCGTAAAGAT | 0.992 ± 0.034 |
| GCGTAAAGGG | 0.99 ± 0.043 |
| GCGTAAGCAG | 0.981 ± 0.012 |
| GCGTACAAGA | 1.04 ± 0.061 |
| GCGTATGTAC | 1.212 ± 0.0081 |
| GCGTCCGACT | 0.986 ± 0.06 |
| GCGTCTATTA | 0.995 ± 0.012 |
| GCGTCTTGGG | 0.96 ± 0.025 |
| GCGTGACGGC | 0.981 ± 0.033 |
| GCGTGGGGGG | 1 ± 0.016 |

| Sequence | switch fluorescence ratio |
| --- | --- |
| GCGTGTAGAT | 1.04 ± 0.036 |
| GCGTTAACGC | 0.9731 ± 0.0096 |
| GCGTTAATGG | 1 ± 0.02 |
| GCGTTAGCGC | 0.968 ± 0.012 |
| GCGTTAGCTT | 0.982 ± 0.069 |
| GCGTTAGGGT | 0.976 ± 0.027 |
| GCGTTAGTAC | 1.09 ± 0.031 |
| GCGTTAGTAG | 0.9971 ± 0.0082 |
| GCGTTAGTTG | 1.01 ± 0.057 |
| GCGTTCACGG | 0.988 ± 0.026 |
| GCGTTCATGG | 1.04 ± 0.0093 |
| GCGTTCGTGG | 1.02 ± 0.027 |
| GCGTTGCATT | 1 ± 0.017 |
| GCGTTGGAAA | 0.997 ± 0.015 |
| GCGTTGGGGG | 0.995 ± 0.037 |
| GCGTTTAACT | 0.9888 ± 0.008 |
| GCGTTTAAGT | 1.02 ± 0.032 |
| GCGTTTATGT | 0.953 ± 0.025 |
| GCGTTTGCGC | 1.03 ± 0.016 |
| GCGTTTGGAC | 1.056 ± 0.01 |
| GCGTTTGGCT | 0.996 ± 0.021 |
| GCGTTTGGGC | 0.99 ± 0.057 |
| GCGTTTGTGG | 1 ± 0.011 |

| Sequence | switch fluorescence ratio |
| --- | --- |
| GCGTTTTAAC | 1.019 ± 0.0093 |
| GCGTTTTGTC | 0.96229 ± 0.00085 |
| GCTAAAAAGA | 1 ± 0.076 |
| GCTAAAAGTT | 0.995 ± 0.021 |
| GCTAAACGAT | 1.03 ± 0.055 |
| GCTAAAGGGG | 1.19 ± 0.31 |
| GCTAAAGGTA | 0.986 ± 0.011 |
| GCTAAAGTCT | 1.043 ± 0.0085 |
| GCTAACGGTT | 0.981 ± 0.011 |
| GCTAATTGTG | 0.975 ± 0.0036 |
| GCTACACAGG | 1.45 ± 0.016 |
| GCTACAGGTT | 1.007 ± 0.0092 |
| GCTACCAAGC | 1.07 ± 0.025 |
| GCTACCCACT | 1.46 ± 0.033 |
| GCTACTGGAT | 1.007 ± 0.0058 |
| GCTACTGTTA | 1.077 ± 0.0025 |
| GCTACTTAGT | 1.02 ± 0.017 |
| GCTAGAGAGG | 1.04 ± 0.063 |
| GCTAGGCATG | 1.04 ± 0.027 |
